Data published in PMC6437863, “Identification and functional characterization of three new terpene synthase genes involved in chemical defense and abiotic stresses in Santalum album” (BMC Plant Biology, 2019).

How the values were obtained:
Experiment in all cases: malachite green phosphate release after HCl stop, Michaelis-Menten fit
Assay type in all cases: biochemical, Santalum album
Conditions in all cases: 10 mM Mg2+, 25 mM HEPES, 30°C, 10 min
[1] = substrate: CC(C)=CCC/C(C)=C/CC/C(C)=C/CO[P@@](=O)(O)OP(=O)(O)O
Source text: (§1) malachite green phosphate release after HCl stop, Michaelis-Menten fit on SaTPS2

[2] = substrate: CC(C)=CCC/C(C)=C/COP(=O)(O)OP(=O)(O)O
Source text: as §1

[3] = substrate: CC(C)=CCC/C(C)=C/CC/C(C)=C/CO[P@@](=O)(O)OP(=O)(O)O; remark: listed apart in the source
Source text: (§2) malachite green phosphate release after HCl stop, Michaelis-Menten fit on SaTPS3

[4] = substrate: CC(C)=CCC/C(C)=C/COP(=O)(O)OP(=O)(O)O; remark: listed apart in the source
Source text: as §2

B1: SaTPS2 (Santalum album) (protein)
chain: MDSATLKVLCDNDANVKIEKNPSGNRRSANYEPSIWNYDFLQSLDSCYNIVEEKHLKLAEKLKGEVKSIIKAPMEPLAKLELVDVVQRLGLKHLFETEIKEALFTVYKDGSDAWWLGHLYATSLRFRLLRQAGLFIPQDVFEIFKSATGEFDMKLRDNIEGLLSLYEASFLGWKGENILDEAKAFTTEYLKNAWENIPQKWLAIRVKHALDLPLHWRVPRFEARWFIDAYEREENINPTLLKLAKLDFNMVQSIHQRELGKLARWWVSTGLDKLSFARNNLMQSYMYGTAVTSDPQFKLARETIVKTGSLITIVDDVYDVFGSIDELELYTNFVDRWNCTEVDELPNTIKMIFLAMFNTANEIGFQIQTERGFNGIPALSKAWDDLCKSYIKEAKWYHGKHKPTLQEYLGNAVVSVGFPLLMTTGYVAIADSEGALDKIDRIPDLVRYACLLNRLVNDLATSSDELARGDTLKSIECYMNQTGASEEIAREHIKGLIEDTWKTLNECSFDDSQFGEPFVSFNLNSVRGSHFFYQHGDGYGVTNSWTKDDLMSILINPISVDDES
notes: full-length ORF, 6His-tagged, pET-28a, E. coli Rosetta 2 (DE3), Ni-NTA purified; no plastid transit peptide; SaTPS1 to 3 span 564 to 604 residues
[1]
  Km: 12.15 ± 1.32 µM
  kcat: 0.2 ± 0.008 s⁻¹
  kcat/Km: 16400 M⁻¹ s⁻¹
[2]
  Km: 12.27 ± 1.32 µM
  kcat: 0.189 ± 0.007 s⁻¹
  kcat/Km: 15400 M⁻¹ s⁻¹

B2: SaTPS3 (Santalum album) (protein)
chain: MESFVFLKSATSNANNSVKVDNRRSANYQSSVWDYNFLRLLGTTYTCCDTMEEEHVRIAEKLKEEVKSLIMGSMGPLANLEFIDAVQRLGLKYQFETEIKEALFAIYKDSNEEWWANDLHATALRFRLLRRNLLFVSQDVFERFKDKKTHDFSGELCEDVKGILSLYEACFLGWDGERVLDKARIFTTTHLNAMNRSTVSDGGSLDKKVKHALELPLHWRAPRVEARWFIDVYEQDPNMNLALLKLAKLDFNMVQSIHQKEVGELSRWWVRTGLDKLSFARNGLMQNYMYCCAVTFEPQFAHVREALTKIGSVLTATDDLYDVYGSLEELELFTSFIDRWDIKEIDELPRDIRLIFLAMYNLSNEIGFDILRDRDFNGVPYVAKMLGDVCSAYLKEARWYHGGYKPRMEEYLDNGLVSIGMLPLLAVAYMLTTDNLSKETVDHVAAAAPLVRYCSLLLRMIDDLGTSSDELRRGDTLKSVECYMNQAGASEEIAREHIEELVRNTWKKMNQCCFGDGQSSFADPFLSFTLNSVRGAHFFYQFGDGFGVTESWTKDTVLSVLFQPIPLDED
notes: as for B1
[3]
  Km: 16.29 ± 1.48 µM
  kcat: 0.171 ± 0.006 s⁻¹
  kcat/Km: 10500 M⁻¹ s⁻¹
[4]
  Km: 14.38 ± 1.20 µM
  kcat: 0.257 ± 0.008 s⁻¹
  kcat/Km: 17900 M⁻¹ s⁻¹
